Source: article PMC13544220, “Glycemic and bodyweight effects of GIPR coding variation reflect differences in surface expression and intrinsic functional impairment” (Science Advances, 2026)

Legend:
Assay type in all cases: cell-based, human
[1] = system: wild-type and variant SNAP-GIPR; experiment: Surface SNAP-GIPR expression (SNAP-tag labelling) in AD293 cells; conditions: for AD293 Surface: Fig S3E, mean; for Surface SNAP-GIPR expression: sheet Fig 1C;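 on all read-outs here: scaled to the experimental average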
Method in brief: (§1)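 Read-out: whole-cell fluorescence of surface-only SNAP label (Alexa Fluor 647, 500 nM, 10 min, RT), wide-field 20X, several FOVs per well. Flat-field corrected, phase-contrast masked, nontransfected-well signal subtracted; normalized to experiment mean or wild-type.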

[2] = system: wild-type and variant SNAP-GIPR; experiment: Surface SNAP-GIPR expression (SNAP-tag labelling) in INS-1 cells; conditions: Fig 4G; Mean
Method in brief: as §1

[3] = system: wild-type and variant SNAP-GIPR; experiment: Single-concentration GIP cAMP response by HTRF in AD293 cells; conditions: Fig S3F, HTRF, mean;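 further: ratio to experiment-wide average response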
Procedure: (§2) All variants were tested in parallel on each occasion to control for transfection efficiency differences between experiments.

[4] = system: wild-type and variant SNAP-GIPR; experiment: Single-concentration GIP cAMP response by HTRF in INS-1 cells; conditions: Fig S3E, mean
Procedure: as §2

[5] = system: wild-type and variant SNAP-GIPR; experiment: cADDis cAMP imaging in AD293 cells, ensemble, expression-matched and per decile; conditions: Fig S3F, cADDis, mean;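 further: Ensemble cells as % of IBMX/FSK response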
Method in brief: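 Surface GIPR and cAMP are measured in individual AD293 cells coexpressing SNAP-tagged receptor and the green cADDis biosensor, imaged live at 37°C. Responses are reported ensemble, expression-matched against wild-type deciles with extremes trimmed, or within each variant's own surface deciles.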

[6] = system: wild-type and variant SNAP-GIPR; experiment: Constitutive and agonist-mediated internalization, reversible SNAP-tag labelling, AD293 cells; set-up: key to Internalisation, Vehicle / Internalisation, +GIP / Internalisation, GIP-only: % internalization: residual fluorescence after Mesna vs pre-Mesna; Surface expression: unit not given here; conditions: Mean
Method in brief: (§3)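 Percentage internalization calculated as specific SNAP fluorescence remaining after 10 min Mesna exposure, relative to pre-Mesna signal, imaged in TNE buffer (pH 8.6).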

[7] = system: wild-type and variant SNAP-GIPR; experiment: Constitutive and agonist-mediated internalization, reversible SNAP-tag labelling, INS-1 cells; set-up: key to Internalisation, GIP-only / Internalisation, Vehicle / Internalisation, +GIP: % internalization: residual fluorescence after Mesna vs pre-Mesna; conditions: Mean
Method in brief: as §3

B1: S415I (protein, UniProt P48546 22-466, looked up, variant S415I)
Gastric inhibitory …: RAETGSKGQTAGELYQRWERYRRECQETLAAAEPPSGLACNGSFDMYVCWDYAAPNATARASCPWYLPWHHHVAAGFVLRQCGSDGQWGLWRDHTQCENPEKNEAFLDQRLILERLQVMYTVGYSLSLATLLLALLILSLFRRLHCTRNYIHINLFTSFMLRAAAILSRDRLLPRPGPYLGDQALALWNQALAACRTAQIVTQYCVGANYTWLLVEGVYLHSLLVLVGGSEEGHFRYYLLLGWGAPALFVIPWVIVRYLYENTQCWERNEVKAIWWIIRTPILMTILINFLIFIRILGILLSKLRTRQMRCRDYRLRLARSTLTLVPLLGVHEVVFAPVTEEQARGALRFAKLGFEIFLSSFQGFLVSVLYCFINKEVQSEIRRGWHHCRLRRILGEEQRQLPERAFRALPSGSGPGEVPTSRGLSSGTLPGPGNEASRELESYC
[1]; column repeated, paired with cAMP 100 nM
  AD293 Surface: 1.415
[1]; paired with cAMP 100 pM
  AD293 Surface: 1.415
[1]; replicate 1
  Surface SNAP-GIPR expression: 1.538
[1]; replicate 2
  Surface SNAP-GIPR expression: 1.541
[1]; replicate 3
  Surface SNAP-GIPR expression: 0.8191
[1]; replicate 4
  Surface SNAP-GIPR expression: 0.7376
[1]; replicate 5
  Surface SNAP-GIPR expression: 1.239
[1]; replicate 6
  Surface SNAP-GIPR expression: 0.9541
[1]; replicate 7
  Surface SNAP-GIPR expression: 1.285
[1]; replicate 8
  Surface SNAP-GIPR expression: 1.716
[1]; replicate 9
  Surface SNAP-GIPR expression: 1.542
[1]; replicate 10
  Surface SNAP-GIPR expression: 1.528
[1]; replicate 11
  Surface SNAP-GIPR expression: 1.71
[1]; replicate 12
  Surface SNAP-GIPR expression: 1.642
[1]; replicate 13
  Surface SNAP-GIPR expression: 1.407
[1]; replicate 14
  Surface SNAP-GIPR expression: 1.415
[1]; replicate 15
  Surface SNAP-GIPR expression: 1.606
[1]; replicate 16
  Surface SNAP-GIPR expression: 1.78
[1]; replicate 17
  Surface SNAP-GIPR expression: 1.435
[1]; replicate 18
  Surface SNAP-GIPR expression: 1.518
[1]; replicate 19
  Surface SNAP-GIPR expression: 1.637
[1]; replicate 20
  Surface SNAP-GIPR expression: 1.459
[1]; replicate 21
  Surface SNAP-GIPR expression: 1.421
[1]; replicate 22
  Surface SNAP-GIPR expression: 1.515
[1]; replicate 23
  Surface SNAP-GIPR expression: 1.665
[1]; replicate 24
  Surface SNAP-GIPR expression: 1.354
[1]; replicate 25
  Surface SNAP-GIPR expression: 1.699
[1]; replicate 26
  Surface SNAP-GIPR expression: 1.338
[1]; replicate 27
  Surface SNAP-GIPR expression: 1.389
[1]; replicate 28
  Surface SNAP-GIPR expression: 1.441
[1]; replicate 29
  Surface SNAP-GIPR expression: 1.484
[1]; replicate 30
  Surface SNAP-GIPR expression: 1.535
[1]; replicate 31
  Surface SNAP-GIPR expression: 1.596
[1]; replicate 32
  Surface SNAP-GIPR expression: 1.349
[1]; replicate 33
  Surface SNAP-GIPR expression: 1.554
[1]; replicate 34
  Surface SNAP-GIPR expression: 1.711
[1]; replicate 35
  Surface SNAP-GIPR expression: 1.113
[1]; replicate 36
  Surface SNAP-GIPR expression: 1.535
[1]; replicate 37
  Surface SNAP-GIPR expression: 1.264
[1]; replicate 38
  Surface SNAP-GIPR expression: 1.181
[1]; replicate 39
  Surface SNAP-GIPR expression: 0.9176
[1]; replicate 40
  Surface SNAP-GIPR expression: 1.301
[1]; replicate 41
  Surface SNAP-GIPR expression: 1.157
[2]
  Surface expression: 1.368
[3]; AD293, 100 pM
  AD293 100 pM HTRF: 1.488
[3]; AD293, 100 nM
  AD293 100 nM HTRF: 1.113
[4]
  INS-1 cAMP (100 nM): 1.251
[5]; AD293, 100 pM
  AD293 100 pM cADDis: 31.0791
[5]; AD293, 100 nM
  AD293 100 nM cADDis: 35.96
[6]; Fig 4E, GIP 100 nM
  +GIP internalisation (100 nM): 0.7539
  GIP-specific internalisation (100 nM): 0.1889
[6]; Fig 4E
  Constitutive internalisation (100 nM): 0.565
  Surface expression: 1.257
[6]; Fig S4C, AD293
  Internalisation, +GIP: 60.2605
  Internalisation, GIP-only: 14.9072
  Internalisation, Vehicle: 45.3533
[7]; Fig 4G, GIP 100 nM
  +GIP internalisation (100 nM): 0.7564
  GIP-specific internalisation (100 nM): 0.2171
[7]; Fig 4G
  Constitutive internalisation (100 nM): 0.5393
[7]; Fig S4C, INS-1
  Internalisation, +GIP: 53.8917
  Internalisation, GIP-only: 15.145
  Internalisation, Vehicle: 38.7467
